Measured values taken from PMC7476095.

Tests used:
KU80 [1] = molecular target: KU80 (UniProt P13010); assay: anti-KU80 co-IP, MAD1 blot; settings: reference: wild type, IR 6 Gy; sites S214
KU80 [2] = molecular target: KU80 (UniProt P13010); assay: anti-FLAG co-IP, KU80 blot; settings: reference: wild type, IR 6 Gy; sites S214

MAD1 (mitotic arrest-deficient protein 1) (from UniProt Q9Y6D9) S214A, IR 6 Gy
binding against the reference (KU80 [1]): weaker
binding against the reference (KU80 [2]): weaker
